In the Human Domainome abundance scans (Beltran et al. 2025):
± gives the uncertainty stated by the source.

B1: Membrane-associated guanylate kinase, WW and PDZ domain-containing protein 2, residues 601 to 682; numbered along this chain, Q86UL8 (parent)
chain: AELMTLTIVKGAQGFGFTIADSPTGQRVKQILDIQGCPGLCEGDLIVEINQQNVQNLSHTEVVDILKDCPIGSETSLIIHRG

Variants of: B1
Experiment: abundance fitness (aPCA) (normalised: wild type 0, dead -1); higher = more abundant; growth selection in yeast, the domain comes from the species named
Settings: Homo sapiens

Abundance fitness of substitutions, site by site:
V62: D -0.985 ± 0.35; G -1.07 ± 0.17; C 0.181 ± 0.29; F -0.345 ± 0.31; A -0.079 ± 0.089; E -0.999 ± 0.49
N50: F -0.71 ± 0.48; G -0.058 ± 0.064; C -0.71 ± 0.43; K -0.011 ± 0.12; T -0.455 ± 0.15; S -0.03 ± 0.068; D -0.084 ± 0.23; H 0.024 ± 0.13; Y -0.386 ± 0.27; W -0.433 ± 0.15; R -0.068 ± 0.057; L -0.219 ± 0.1; E 0.013 ± 0.16; V -0.626 ± 0.17; M -0.108 ± 0.1
S58: Q -0.057 ± 0.092; E -0.065 ± 0.092; C 0.052 ± 0.11; N -0.007 ± 0.23; W -0.021 ± 0.12; Y -0.226 ± 0.26; T -0.135 ± 0.095; G 0.015 ± 0.1; F -0.29 ± 0.16; D -0.183 ± 0.17; R -0.119 ± 0.075; V -0.093 ± 0.079; P -0.174 ± 0.088; K -0.236 ± 0.17
H59: D -0.176 ± 0.093; W -0.074 ± 0.1; Q -0.014 ± 0.1; A -0.088 ± 0.077; L -0.01 ± 0.065; N -0.009 ± 0.27; E 0.126 ± 0.15; Y -0.109 ± 0.11; M 0.065 ± 0.1; K -0.132 ± 0.092; G -0.018 ± 0.068; P -0.094 ± 0.083; T -0.132 ± 0.1; S -0.038 ± 0.083; R -0.009 ± 0.057; I -0.142 ± 0.16
C41: H 0.144 ± 0.084; Q -0.001 ± 0.061; K -0.036 ± 0.056; W -0.058 ± 0.039; M -0.04 ± 0.05; G -0.046 ± 0.03; A 0.042 ± 0.04; F 0.016 ± 0.088; D 0.036 ± 0.066; R -0.022 ± 0.029; L -0.005 ± 0.037; I 0.057 ± 0.062; N -0.012 ± 0.081; P -1.02 ± 0.16; T 0.046 ± 0.048; E 0.01 ± 0.044; S 0.027 ± 0.038
L40: V -0.061 ± 0.081; A -0.108 ± 0.17; G -0.752 ± 0.13; F 0.047 ± 0.25; T -0.498 ± 0.097; S -0.616 ± 0.21; M -0.254 ± 0.17; P -0.232 ± 0.09
G39: R -0.167 ± 0.16; W -0.211 ± 0.25; V -0.392 ± 0.11; A -0.052 ± 0.1; D -0.197 ± 0.17; E -0.255 ± 0.14; P -0.083 ± 0.13; S -0.035 ± 0.084; M -0.192 ± 0.16; H 0.069 ± 0.25; N -0.043 ± 0.24; K -0.192 ± 0.2; T -0.017 ± 0.2; L -0.22 ± 0.14
E42: L -0.028 ± 0.05; D -0.152 ± 0.076; N -0.087 ± 0.11; K -0.016 ± 0.069; F -0.123 ± 0.1; S -0.049 ± 0.057; V -0.062 ± 0.05; T -0.015 ± 0.061; R -0.1 ± 0.052; P 0.061 ± 0.075; H -0.23 ± 0.2; G -0.114 ± 0.052; C -0.123 ± 0.064; M 0.036 ± 0.063; I -0.087 ± 0.089; W -0.171 ± 0.064
L57: T -0.128 ± 0.14; C -0.046 ± 0.15; S 0.028 ± 0.06; Q -0.081 ± 0.13; K -0.108 ± 0.15; E -0.038 ± 0.079; W -0.13 ± 0.11; N 0.076 ± 0.16; D -0.109 ± 0.19; G -0.152 ± 0.065; V -0.029 ± 0.067; M -0.283 ± 0.14; H -0.008 ± 0.14
Q55: E -0.029 ± 0.065; N 0.039 ± 0.32; K -0.276 ± 0.18; R 0.004 ± 0.052; W -0.133 ± 0.082; A -0.069 ± 0.095; V -0.027 ± 0.09; M -0.01 ± 0.16; G 0.073 ± 0.059; I -0.02 ± 0.12; D -0.111 ± 0.16; L -0.106 ± 0.072; S -0.172 ± 0.097; F 0.043 ± 0.45; C -0.111 ± 0.14
D44: E -0.874 ± 0.22; C -0.989 ± 0.28; N -0.21 ± 0.1; S -0.618 ± 0.12; L -1.27 ± 0.3; Q -0.567 ± 0.16; Y -0.71 ± 0.2; M -0.572 ± 0.24; A -0.263 ± 0.11; T -0.95 ± 0.26; H -0.79 ± 0.31; G -0.859 ± 0.11
Q52: C -0.052 ± 0.066; F -0.054 ± 0.045; D 0.027 ± 0.061; W -0.095 ± 0.049; V -0.039 ± 0.039; H -0.029 ± 0.043; R -0.007 ± 0.037; L -0.072 ± 0.03; M 0.01 ± 0.045; K 0.049 ± 0.048; T -0.018 ± 0.038; S -0.037 ± 0.037; E -0.016 ± 0.069; N 0.017 ± 0.046; A -0.037 ± 0.044; Y -0.024 ± 0.05; I 0.038 ± 0.051
E61: T -0.289 ± 0.14; R 0.002 ± 0.1; I -0.409 ± 0.32; D -0.005 ± 0.37; L -0.046 ± 0.071; G -0.036 ± 0.065; F -0.381 ± 0.39; K -0.137 ± 0.17; S -0.2 ± 0.12; V -0.132 ± 0.089; W -0.374 ± 0.21; A -0.151 ± 0.094; M 0.08 ± 0.28; C -0.039 ± 0.11; H -0.051 ± 0.15
V47: C -0.066 ± 0.09; E 0.004 ± 0.12; G -0.164 ± 0.063; K -0.195 ± 0.16; I -0.165 ± 0.11; R -0.018 ± 0.073; D -0.161 ± 0.33; Y -0.337 ± 0.18; N -0.291 ± 0.39; W -0.09 ± 0.11; S -0.09 ± 0.069; Q 0.033 ± 0.26; F 0.185 ± 0.38; A 0.036 ± 0.082
N53: T -0.042 ± 0.035; S -0.022 ± 0.033; W -0.201 ± 0.049; Q -0.025 ± 0.042; D -0.025 ± 0.043; L -0.069 ± 0.03; F -0.095 ± 0.038; E -0.043 ± 0.047; K -0.021 ± 0.042; H -0.045 ± 0.036; P -0.001 ± 0.034; R -0.061 ± 0.033; G -0.051 ± 0.037; M -0.043 ± 0.05; I -0.076 ± 0.04; A -0.097 ± 0.034; Y -0.064 ± 0.038
Q51: H -0.016 ± 0.041; W -0.09 ± 0.055; S -0.018 ± 0.038; V -0.088 ± 0.042; K -0.024 ± 0.042; P -0.749 ± 0.07; A -0.012 ± 0.043; N 0.045 ± 0.044; M -0.042 ± 0.047; L -0.064 ± 0.029; C -0.067 ± 0.059; T 0.005 ± 0.039; I -0.269 ± 0.048; F -0.063 ± 0.041; E -0.013 ± 0.063; D -0.024 ± 0.05
T60: P -0.198 ± 0.15; V 0.004 ± 0.086; D -0.136 ± 0.12; W -0.075 ± 0.12; K -0.003 ± 0.15; M 0.012 ± 0.11; L -0.011 ± 0.071; C 0.17 ± 0.15; R -0.038 ± 0.065; Y -0.165 ± 0.2; A 0.146 ± 0.081; E -0.051 ± 0.11; S -0.032 ± 0.093; N 0.054 ± 0.11
V54: L -0.089 ± 0.029; A -0.053 ± 0.04; R -0.939 ± 0.082; P -0.806 ± 0.064; H -1.18 ± 0.15; G -0.523 ± 0.049; Y -1 ± 0.12; K -0.855 ± 0.1; F -0.867 ± 0.082; S -0.243 ± 0.034; I -0.07 ± 0.04; T -0.037 ± 0.035; D -0.964 ± 0.14; Q -0.688 ± 0.064; E -0.906 ± 0.16; C -0.086 ± 0.052; W -0.779 ± 0.11
E48: S -0.004 ± 0.089; L -0.114 ± 0.079; C -0.145 ± 0.1; Y 0.006 ± 0.26; A -0.193 ± 0.094; D -0.444 ± 0.23; M -0.144 ± 0.2; V -0.086 ± 0.087; Q -0.098 ± 0.17; K -0.117 ± 0.11; I -0.871 ± 0.47; T -0.226 ± 0.18; R -0.103 ± 0.056; H 0.091 ± 0.43; W -0.158 ± 0.12
I49: F -0.065 ± 0.24; S -0.97 ± 0.49; R -0.875 ± 0.17; C -0.094 ± 0.11; G -1.08 ± 0.31; T -0.371 ± 0.34; A -0.173 ± 0.078; W -0.241 ± 0.093; L 0.011 ± 0.087; V 0.072 ± 0.082; M -0.195 ± 0.13; H -0.964 ± 0.23; Y -0.14 ± 0.28; P -1.01 ± 0.36
P38: W -0.09 ± 0.15; Q -0.121 ± 0.14; S -0.056 ± 0.094; V -0.097 ± 0.088; R -0.13 ± 0.098; T -0.038 ± 0.096; L 0.037 ± 0.098
I46: V -0.079 ± 0.18; T -0.587 ± 0.27; L 0.236 ± 0.32; M 0.164 ± 0.14
N56: Q -0.099 ± 0.12; M -0.06 ± 0.11; V -0.128 ± 0.094; R -0.036 ± 0.052; P 0.072 ± 0.1; W 0.197 ± 0.28; F -0.099 ± 0.25; C -0.326 ± 0.22; E 0.221 ± 0.23; Y 0.074 ± 0.42; A -0.076 ± 0.071; G 0.003 ± 0.079; L -0.051 ± 0.069; S -0.053 ± 0.1; T -0.03 ± 0.11; K -0.046 ± 0.095
G43: H 0.004 ± 0.39; D 0.023 ± 0.21; V -0.761 ± 0.24; K 0.199 ± 0.36; T -0.121 ± 0.12; C -0.187 ± 0.2; Q 0.068 ± 0.14; A -0.086 ± 0.097; L 0 ± 0.11; M -0.261 ± 0.17; F -0.275 ± 0.17; E 0.059 ± 0.2; R -0.182 ± 0.079; W -0.206 ± 0.099; S -0.104 ± 0.087
L45: R -0.244 ± 0.32; V -0.232 ± 0.12; M 0.089 ± 0.17; G -0.096 ± 0.34; S 0.256 ± 0.26; A -0.088 ± 0.43; W -0.161 ± 0.15
